Changes are numbered by the printed parent chain.
T1: TnpAREP Ec (TnpAEc-His6) (Escherichia coli, UniProt Q47152 1-165)
T1 sequence: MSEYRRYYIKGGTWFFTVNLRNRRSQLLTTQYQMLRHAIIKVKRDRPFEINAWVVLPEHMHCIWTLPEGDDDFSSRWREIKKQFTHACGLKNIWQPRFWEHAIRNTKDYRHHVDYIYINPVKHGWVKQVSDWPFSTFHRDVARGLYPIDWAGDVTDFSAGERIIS

B1: B268i (61) wt y REPEc (structured_DNA)
DNA: GTAGGACGGATAAGGCGTTTACGCCGCATCCGGCAGTTGTACGCAGGTGCCTGATGCGACG
B2: B268i (61) GTAC (structured_DNA)
DNA: B1 DNA with G4C
B3: B2689 mut loop (complement of loop) (structured_DNA)
DNA: B1 DNA with T19A, T20A
B4: B268i (61) GTGG (structured_DNA)
DNA: B1 DNA with A3G

Biological target: T1, TnpAREP Ec (TnpAEc-His6)
Test: EMSA; 2 and 4 uM protein, no divalent metal; EMSA: 12.5 mM Tris pH 7.5, 120 mM NaCl, 1 mM DTT, 20 ug/ml BSA, 0.5 ug poly-dIdC, 7% glycerol, no divalent metal; 0.02 uM labelled + 0.5 uM unlabelled oligonucleotide, 45 min 37 C (standard reaction); 8% native gel (TAE, 7% glycerol) at 4 C
Details: protein: recombinant, tags: His6 (C-terminal by name), chain copies: 2, label: 5'-32P

Row | Binder | binding result (hairpin with bulge) | binding result
1 | B1 | binds | –
2 | B2 | no binding | –
3 | B3 | binds | –
4 | B4 | no binding | –
5 | GTAGGACGGATAAGCATCCGGCAGTTGTACGCAGGTGCCTGATGCGACG (structured_DNA) [B2688 del upper stem and loop] | – | no binding
